Source: patent US20030180295A1, “Angiocidin: a Cys-Ser-Val-Thr-Cys-Gly specific tumor cell adhesion receptor” (Philadelphia Health and Education Corporation, priority 1999, published 2003)

Tests used:
[1] = tested on: Bovine aortic endothelial cells (BAEC); assay: ALAMAR BLUE cell viability assay; type: cell-based
Method: Bovine aortic endothelial cells (BAEC), human umbilical vein endothelial cells (HUVEC), fibroblast cells, A549 human lung carcinoma cells (A549), MDA-MB231 human breast carcinoma cells (MB231), MCF7 human breast carcinoma cells (MCF7) were treated with 37 μg/ml of receptor, or buffer alone, for 24 hours. Viability of the cells was measured using the ALAMAR BLUE™ assay, which measures the capacity of cells to metabolize the ALAMAR BLUE™ dye. The ALAMAR BLUE™ assay (available from Biosource International, Camarillo, Calif.) quantitatively measures the proliferation of cell lines and can establish the relative cytotoxicity of chemical agents. […] Data can be collected using either fluorescence-based instrumentation (530-560 nm excitation wavelength and 590 nm emission wavelength) or absorbance-based instrumentation (570 nm and 600 nm).
BAEC and BSM cells were treated with increasing concentrations of angiocidin (0, 0.625, 1.25, 2.5, 5, 15, 26 and 37 μg/ml) for 24 hours. Cell viability was measured using the ALAMAR BLUE Tm assay. […]
Bovine aortic endothelial cells (BAEC) were cultured overnight in serum-free media containing either 37 μg/ml his-tagged angiocidin or his-tagged GST. […] Viability was measured by the ALAMAR BLUE™ assay. […]
The endothelial cells (BAEC) were incubated overnight 37 μg/ml of the angiocidin, fragments, and GST. Viability was measured using the ALAMAR BLUE™ assay.

[2] = biological target: TSP-1 (Homo sapiens, UniProt P07996); assay: Optical binding of angiocidin fragments to TSP-1 derivatized cuvette; settings: test proteins at 10 nm in PBS buffer
Method: This study examines the amino terminal (Met1-Lys132) and carboxy terminal (IIe248-Lys380) portions of angiocidin (SEQ ID NOS: 24 and 25, respectively). The binding of undenatured recombinant angiocidin fragments was compared to full length angiocidin. GST was used as a negative control. Binding was evaluated using an optical binding method that uses a cuvette to which TSP-1 is covalently coupled. A laser beam was used to detect whether the test protein (fragments, angiocidin, or GST) is bound to the TSP-1 derivatized cuvette surface. The cuvette was derivatized with 1 μg of TSP-1. The cuvette surfaces were blocked with a 1% BSA solution to prevent nonspecific binding. The test proteins were added at a concentration of […] in a PBS buffer.

Sequence of TSP-1 (P07996 19-1170): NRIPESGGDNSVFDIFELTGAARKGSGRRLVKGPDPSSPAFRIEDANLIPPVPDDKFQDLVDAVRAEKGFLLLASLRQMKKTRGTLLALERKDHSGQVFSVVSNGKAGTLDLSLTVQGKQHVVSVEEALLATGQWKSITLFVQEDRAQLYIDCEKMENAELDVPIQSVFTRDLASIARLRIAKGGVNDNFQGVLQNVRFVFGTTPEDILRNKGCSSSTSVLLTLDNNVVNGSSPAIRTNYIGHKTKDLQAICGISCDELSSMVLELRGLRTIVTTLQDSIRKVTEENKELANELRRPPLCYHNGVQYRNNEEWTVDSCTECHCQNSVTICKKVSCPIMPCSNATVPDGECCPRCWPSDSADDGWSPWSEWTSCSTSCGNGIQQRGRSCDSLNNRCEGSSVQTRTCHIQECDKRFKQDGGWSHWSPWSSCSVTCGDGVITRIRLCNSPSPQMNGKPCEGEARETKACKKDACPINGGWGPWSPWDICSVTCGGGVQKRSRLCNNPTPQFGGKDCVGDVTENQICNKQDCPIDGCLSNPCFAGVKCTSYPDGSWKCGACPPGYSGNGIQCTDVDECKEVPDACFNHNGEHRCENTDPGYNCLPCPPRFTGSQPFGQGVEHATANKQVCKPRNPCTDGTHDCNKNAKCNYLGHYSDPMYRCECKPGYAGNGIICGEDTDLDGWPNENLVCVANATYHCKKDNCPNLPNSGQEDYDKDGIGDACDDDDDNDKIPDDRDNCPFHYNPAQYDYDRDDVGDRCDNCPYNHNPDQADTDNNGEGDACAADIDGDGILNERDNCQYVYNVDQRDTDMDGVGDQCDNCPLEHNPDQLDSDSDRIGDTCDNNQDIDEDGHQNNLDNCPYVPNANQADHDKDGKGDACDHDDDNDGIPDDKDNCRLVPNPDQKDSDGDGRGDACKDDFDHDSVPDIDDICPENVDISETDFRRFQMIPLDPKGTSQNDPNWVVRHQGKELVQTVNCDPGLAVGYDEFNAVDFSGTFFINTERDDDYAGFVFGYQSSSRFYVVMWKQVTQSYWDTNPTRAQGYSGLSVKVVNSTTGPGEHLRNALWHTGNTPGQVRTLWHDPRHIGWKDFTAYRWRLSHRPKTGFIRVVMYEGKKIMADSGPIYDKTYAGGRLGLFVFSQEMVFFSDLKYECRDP

B1: amino terminal fragment Met1-Lys132: amino terminal fragment Met1-Lys132 of angiocidin (SEQ ID NO: 24) (protein, listed as Homo sapiens)
chain: MVLESTMVCVDNSEYMRNGDFLPTRLQAQQDAVNIVCHSKTRSNPENNVGLITLANDCEVLTTLTPDTGRILSKLHTVQPKGKITFCTGIRVAHLALKHRQGKNHKMRIIAFVGSPVEDNEKDLVKLAKRLK
- anti-endothelial activity compared to angiocidin ([1]; 37 μg/ml, overnight): has the same anti-endothelial activity as the full length angiocidin
- cell viability, angiocidin and fragments ([1]; Example 27, FIG. 34): inhibited cell viability
- binding to TSP-1 derivatized cuvette [2]: show very similar binding at the nano molar range
